Measured values reported in the supplement of paper PMC9112550, “Optimization of the antimicrobial peptide Bac7 by deep mutational scanning” (BMC Biology, 2022).

System: Escherichia coli TOP10
Assay: shrunken log2 fold change of peptide-encoding DNA abundance (4.5 h post-induction vs induction); higher = less antimicrobial activity (less host growth inhibition)
Conditions: time post-induction: 4.5 h; library: site-saturation at positions 5, 18, 19, 20
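Further: peptides expressed intracellularly from a pBAD plasmid library in pooled LB shake-flask culture, induced with 0.3% L-arabinose, DNA abundance read by NGS, three biological replicates, DESeq2 with apeglm shrinkage.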

Sequence | shrunken log2 fold change
RRIRDRPPRLPRPRPRPGTGPRP | 0.304
RRIRDRPPRLPRPRPRPGVEPRP | 0.022
RRIRDRPPRLPRPRPRPGVGPRP | 0.519
RRIRDRPPRLPRPRPRPGVQPRP | -0.0372
RRIRDRPPRLPRPRPRPGWTPRP | 0.379
RRIRDRPPRLPRPRPRPGWWPRP | 0.227
RRIRDRPPRLPRPRPRPGYYPRP | 0.117
RRIRDRPPRLPRPRPRPHDNPRP | -0.323
RRIRDRPPRLPRPRPRPHDTPRP | -0.123
RRIRDRPPRLPRPRPRPHFIPRP | -0.0922
RRIRDRPPRLPRPRPRPHGYPRP | 0.0237
RRIRDRPPRLPRPRPRPHHCPRP | -0.126
RRIRDRPPRLPRPRPRPHHSPRP | -1.11
RRIRDRPPRLPRPRPRPHHYPRP | -0.0954
RRIRDRPPRLPRPRPRPHIHPRP | -0.342
RRIRDRPPRLPRPRPRPHKRPRP | -0.0521
RRIRDRPPRLPRPRPRPHLDPRP | -0.131
RRIRDRPPRLPRPRPRPHNEPRP | -0.701
RRIRDRPPRLPRPRPRPHPFPRP | 0.0528
RRIRDRPPRLPRPRPRPHPLPRP | -0.216
RRIRDRPPRLPRPRPRPHPQPRP | 0.256
RRIRDRPPRLPRPRPRPHQWPRP | 0.031
RRIRDRPPRLPRPRPRPHRMPRP | 0.0707
RRIRDRPPRLPRPRPRPHRVPRP | -0.0141
RRIRDRPPRLPRPRPRPHSCPRP | -0.00804
RRIRDRPPRLPRPRPRPHTDPRP | -0.623
RRIRDRPPRLPRPRPRPHVMPRP | -0.0796

Sequence | shrunken log2 fold change
RRIRDRPPRLPRPRPRPHWAPRP | -0.00226
RRIRDRPPRLPRPRPRPHWGPRP | 0.00196
RRIRDRPPRLPRPRPRPHYWPRP | -0.282
RRIRDRPPRLPRPRPRPIANPRP | 0.274
RRIRDRPPRLPRPRPRPICMPRP | -0.00256
RRIRDRPPRLPRPRPRPIDTPRP | -0.3
RRIRDRPPRLPRPRPRPIFCPRP | -0.0484
RRIRDRPPRLPRPRPRPIFNPRP | -0.239
RRIRDRPPRLPRPRPRPIFWPRP | 0.0145
RRIRDRPPRLPRPRPRPIFYPRP | 0.0295
RRIRDRPPRLPRPRPRPIGSPRP | -0.693
RRIRDRPPRLPRPRPRPIIAPRP | 0.0706
RRIRDRPPRLPRPRPRPIKHPRP | -0.373
RRIRDRPPRLPRPRPRPIKMPRP | 0.0713
RRIRDRPPRLPRPRPRPIMEPRP | 0.594
RRIRDRPPRLPRPRPRPIPQPRP | -0.0127
RRIRDRPPRLPRPRPRPIPVPRP | -0.00774
RRIRDRPPRLPRPRPRPIQLPRP | 0.0401
RRIRDRPPRLPRPRPRPIRSPRP | -0.00822
RRIRDRPPRLPRPRPRPISPPRP | -0.036
RRIRDRPPRLPRPRPRPITCPRP | -0.403
RRIRDRPPRLPRPRPRPITIPRP | -0.175
RRIRDRPPRLPRPRPRPITMPRP | 0.111
RRIRDRPPRLPRPRPRPIVNPRP | -0.0751
RRIRDRPPRLPRPRPRPIVPPRP | -0.142
RRIRDRPPRLPRPRPRPKDEPRP | 0.0229
RRIRDRPPRLPRPRPRPKDPPRP | -0.00415
